The source of these data is paper PMC7015683.

Where only a bound is given, the exact number is not on record here.

The experiment addresses insulin-like growth factor 2 receptor (IGF2R), native full-length, from bovine liver (bovine) (UniProt P08169). Description: pull-down.
UniProt P08169, sequence (P08169 45-2499): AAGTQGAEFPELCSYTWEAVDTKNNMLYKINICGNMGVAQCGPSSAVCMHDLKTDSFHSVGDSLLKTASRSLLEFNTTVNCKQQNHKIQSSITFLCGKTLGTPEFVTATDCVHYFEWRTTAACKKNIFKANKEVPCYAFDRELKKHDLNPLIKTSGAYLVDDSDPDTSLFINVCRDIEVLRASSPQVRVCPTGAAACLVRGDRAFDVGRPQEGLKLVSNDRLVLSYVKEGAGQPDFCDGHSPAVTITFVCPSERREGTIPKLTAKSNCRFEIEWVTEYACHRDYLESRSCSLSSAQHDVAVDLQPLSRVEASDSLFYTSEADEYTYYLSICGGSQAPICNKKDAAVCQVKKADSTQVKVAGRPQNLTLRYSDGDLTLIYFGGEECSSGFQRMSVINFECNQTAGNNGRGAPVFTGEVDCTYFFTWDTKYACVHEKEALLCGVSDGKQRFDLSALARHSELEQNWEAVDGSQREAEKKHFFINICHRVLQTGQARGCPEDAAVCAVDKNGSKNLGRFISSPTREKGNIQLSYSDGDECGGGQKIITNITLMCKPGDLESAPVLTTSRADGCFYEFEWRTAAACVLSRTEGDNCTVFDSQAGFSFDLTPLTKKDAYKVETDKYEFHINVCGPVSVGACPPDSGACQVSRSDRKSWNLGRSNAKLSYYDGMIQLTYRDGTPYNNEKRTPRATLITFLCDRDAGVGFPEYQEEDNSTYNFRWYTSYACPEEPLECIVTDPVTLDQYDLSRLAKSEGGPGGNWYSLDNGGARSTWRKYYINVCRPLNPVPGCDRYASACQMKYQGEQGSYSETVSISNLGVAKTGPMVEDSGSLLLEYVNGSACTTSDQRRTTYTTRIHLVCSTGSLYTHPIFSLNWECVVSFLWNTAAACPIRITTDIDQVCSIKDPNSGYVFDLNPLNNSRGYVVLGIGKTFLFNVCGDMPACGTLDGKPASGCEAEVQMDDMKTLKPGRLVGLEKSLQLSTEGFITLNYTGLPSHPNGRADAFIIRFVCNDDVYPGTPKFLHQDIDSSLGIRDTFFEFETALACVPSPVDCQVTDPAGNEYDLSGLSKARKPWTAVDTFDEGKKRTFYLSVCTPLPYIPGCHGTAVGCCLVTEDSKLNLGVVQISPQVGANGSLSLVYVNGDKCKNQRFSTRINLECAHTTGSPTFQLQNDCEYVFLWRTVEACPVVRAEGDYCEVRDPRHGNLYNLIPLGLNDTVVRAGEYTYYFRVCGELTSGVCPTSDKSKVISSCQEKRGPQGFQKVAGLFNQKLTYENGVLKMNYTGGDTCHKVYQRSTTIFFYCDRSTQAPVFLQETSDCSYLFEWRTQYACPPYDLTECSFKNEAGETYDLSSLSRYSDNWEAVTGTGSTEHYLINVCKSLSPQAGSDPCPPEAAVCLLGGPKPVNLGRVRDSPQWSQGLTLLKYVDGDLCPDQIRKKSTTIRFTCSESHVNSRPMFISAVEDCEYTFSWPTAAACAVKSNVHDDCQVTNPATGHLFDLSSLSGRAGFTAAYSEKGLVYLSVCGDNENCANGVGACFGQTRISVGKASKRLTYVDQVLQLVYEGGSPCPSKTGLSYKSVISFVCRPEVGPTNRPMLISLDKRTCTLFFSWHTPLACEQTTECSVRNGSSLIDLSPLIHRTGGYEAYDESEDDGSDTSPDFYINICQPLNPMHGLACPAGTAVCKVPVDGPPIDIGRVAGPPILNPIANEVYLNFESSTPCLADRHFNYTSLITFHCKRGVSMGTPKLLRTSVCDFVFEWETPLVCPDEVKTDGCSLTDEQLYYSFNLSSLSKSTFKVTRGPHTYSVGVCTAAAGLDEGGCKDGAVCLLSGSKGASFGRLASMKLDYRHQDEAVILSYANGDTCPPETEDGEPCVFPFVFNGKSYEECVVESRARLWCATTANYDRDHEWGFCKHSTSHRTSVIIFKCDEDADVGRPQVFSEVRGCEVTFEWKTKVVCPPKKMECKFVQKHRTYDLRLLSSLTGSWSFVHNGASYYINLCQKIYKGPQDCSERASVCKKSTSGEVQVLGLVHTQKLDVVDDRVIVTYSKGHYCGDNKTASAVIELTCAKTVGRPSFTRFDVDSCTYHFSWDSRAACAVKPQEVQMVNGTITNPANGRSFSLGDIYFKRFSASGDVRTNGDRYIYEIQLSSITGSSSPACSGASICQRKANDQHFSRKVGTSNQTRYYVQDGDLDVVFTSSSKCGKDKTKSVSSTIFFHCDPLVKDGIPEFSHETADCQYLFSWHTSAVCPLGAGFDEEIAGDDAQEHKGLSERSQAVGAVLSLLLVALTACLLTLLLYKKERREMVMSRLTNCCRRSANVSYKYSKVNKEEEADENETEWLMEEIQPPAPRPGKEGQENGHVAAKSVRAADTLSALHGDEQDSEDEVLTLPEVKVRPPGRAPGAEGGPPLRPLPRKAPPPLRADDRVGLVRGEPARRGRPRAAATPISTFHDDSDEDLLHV
Substance Flag-IGF2 F48D mutant (ligand) showed a percent reduction of binding against WT IGF2 of 20 to 30%. The same measure for Flag-IGF2 L53D mutant (ligand): over 60%; for “Flag-IGF2 F28A V43D double mutant (ligand)”: 20 to 30%.
